From PMC7782867 (2020)
Square brackets hold non-standard residues; d marks the D form. Ends that are not written are not given here. pS = N[C@@H](COP(=O)(O)O)C(=O)O

How the values were obtained:
[1] = target: T1, ancestral Eukaryota CRIPT; assay: stopped-flow
T1 chain: YKQSSV

CRIPT [2] = target: T2, CRIPT (Drosophila melanogaster); assay: ITC
T2 chain: YRQSST

CRIPT [3] = target: T3, CRIPT (Octopus bimaculoides); assay: stopped-flow
T3 chain: YRQSSV

CRIPT [4] = target: T4, CRIPT (Homo sapiens); assay: stopped-flow
T4 chain: YKQTSV

CRIPT [5] = target: T5, CRIPT (Hydra vulgaris); assay: stopped-flow
T5 chain: YRQTSC

CRIPT [6] = target: T4, CRIPT; assay: ITC
CRIPT [7] = target: T6, CRIPT (Drosophila melanogaster); assay: ITC
T6 chain: GKKIMNTKNYKQSST

CRIPT [8] = target: T7, CRIPT (Drosophila melanogaster); assay: ITC
T7 chain: YRQS[pS]T

B1: DLG PDZ3 PDZ3 (protein)
chain: EPRTITIQKGPQGLGFNIVGGEDGQGIYVSFILAGGPADLGSELKRGDQLLSVNNVNLTHATHEEAAQALKTSGGVVTLLAQYRPEEY
B1 was tested, and the Kd [1] was 670 nM and the Kd (CRIPT [2]) was 27 µM.

B2: DLG4 PDZ3 PDZ3 (protein)
chain: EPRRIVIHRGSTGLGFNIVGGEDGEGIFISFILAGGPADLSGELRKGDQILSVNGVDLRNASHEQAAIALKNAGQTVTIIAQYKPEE
B2 was tested, and the Kd [1] was 2180 nM, the Kd (CRIPT [3]) was 1240 nM and the Kd (CRIPT [4]) was 395 nM. The Kd (CRIPT [5]) was 360 nM and the Kd (CRIPT [6]) was 700 nM.

B3: DLG PDZ3 α3 PDZ3-α3 (protein)
chain: REPRTITIQKGPQGLGFNIVGGEDGQGIYVSFILAGGPADLGSELKRGDQLLSVNNVNLTHATHEEAAQALKTSGGVVTLLAQYRPEEYNRFEARI
Binder B3 has a Kd (CRIPT [7]) of 34 µM and a Kd (CRIPT [8]) of 40 µM.
